Results: US20060246084A1 (MICHIGAN STATE UNIVERSITY, published 2006)
Read-outs that look alike come from different tables or passages of the source.

What was measured:
[1] = target: T1, LcrV68-326, N-terminally truncated LcrV (Yersinia pestis, UniProt P0C7U7 68-326); assay: 125I-LcrV68-326 plus unlabelled IFN-γ on human thymocytes
[2] = target: T1, LcrV68-326, N-terminally truncated LcrV; assay: 125I-LcrV68-326 plus unlabelled IFN-γ on human monocytes
[3] = target: T1, LcrV68-326, N-terminally truncated LcrV
[4] = target: T1, LcrV68-326, N-terminally truncated LcrV; assay: 125I-LcrV68-326 plus unlabelled IFN-γ on U937 cells
[5] = target: T1, LcrV68-326, N-terminally truncated LcrV; assay: 125I-LcrV68-326 plus unlabelled IFN-γ on human neutrophils
[6] = target: T2, IFN-γ receptor on human cells (no IFN-γ added) (human, UniProt P15260 18-489); assay: 125I radioligand binding to human monocytes
T2 construct: whole, on cells; also called receptors of U937 cells and human neutrophils, monocytes, and thymocytes
T2 sequence: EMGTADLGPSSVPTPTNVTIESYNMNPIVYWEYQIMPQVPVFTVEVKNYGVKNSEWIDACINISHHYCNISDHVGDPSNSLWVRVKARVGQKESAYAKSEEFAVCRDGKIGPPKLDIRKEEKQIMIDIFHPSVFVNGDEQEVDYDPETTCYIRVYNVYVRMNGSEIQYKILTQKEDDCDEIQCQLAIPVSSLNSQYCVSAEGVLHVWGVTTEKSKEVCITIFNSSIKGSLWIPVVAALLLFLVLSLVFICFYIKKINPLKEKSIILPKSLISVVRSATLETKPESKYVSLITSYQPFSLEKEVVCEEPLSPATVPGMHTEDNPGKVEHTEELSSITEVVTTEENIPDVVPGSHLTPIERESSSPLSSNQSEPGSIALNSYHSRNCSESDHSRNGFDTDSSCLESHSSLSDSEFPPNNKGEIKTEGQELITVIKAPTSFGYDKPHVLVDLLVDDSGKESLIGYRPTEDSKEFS

[7] = target: T2, IFN-γ receptor on human cells (no IFN-γ …); assay: 125I radioligand binding to human thymocytes
[8] = target: T2, IFN-γ receptor on human cells (no IFN-γ …); assay: 125I radioligand binding to U937 cells
[9] = target: T2, IFN-γ receptor on human cells (no IFN-γ …); assay: 125I radioligand binding to human neutrophils

B1: IFN-γ bound to its receptor (IFN-γR-IFN-γ) on human cells (other)
chain 1: QDPYVKEAENLKKYFNAGHSDVADNGTLFLGILKNWKEESDRKIMQSQIVSFYFKLFKNFKDDQSIQKSVETIKEDMNVKFFNSNKKKRDDFEKLTNYSVTDLNVQRKAIHELIQVMAELSPAAKTGKRKRSQMLFRGRRASQ
chain 2: EMGTADLGPSSVPTPTNVTIESYNMNPIVYWEYQIMPQVPVFTVEVKNYGVKNSEWIDACINISHHYCNISDHVGDPSNSLWVRVKARVGQKESAYAKSEEFAVCRDGKIGPPKLDIRKEEKQIMIDIFHPSVFVNGDEQEVDYDPETTCYIRVYNVYVRMNGSEIQYKILTQKEDDCDEIQCQLAIPVSSLNSQYCVSAEGVLHVWGVTTEKSKEVCITIFNSSIKGSLWIPVVAALLLFLVLSLVFICFYIKKINPLKEKSIILPKSLISVVRSATLETKPESKYVSLITSYQPFSLEKEVVCEEPLSPATVPGMHTEDNPGKVEHTEELSSITEVVTTEENIPDVVPGSHLTPIERESSSPLSSNQSEPGSIALNSYHSRNCSESDHSRNGFDTDSSCLESHSSLSDSEFPPNNKGEIKTEGQELITVIKAPTSFGYDKPHVLVDLLVDDSGKESLIGYRPTEDSKEFS
Kd [1]: 2.4 nM
Kd [2]: 7.2 nM
Kd [3]: 0.016 nM
Kd [4]: 0.8 nM
Kd [5]: 0.92 nM

B2: recombinant human IFN-γ (ligand)
chain: QDPYVKEAENLKKYFNAGHSDVADNGTLFLGILKNWKEESDRKIMQSQIVSFYFKLFKNFKDDQSIQKSVETIKEDMNVKFFNSNKKKRDDFEKLTNYSVTDLNVQRKAIHELIQVMAELSPAAKTGKRKRSQMLFRGRRASQ
Kd [6]: 0.84 nM
Kd [7]: 0.26 nM
Kd [8]: 0.68 nM
Kd [9]: 0.93 nM
